In the supplement of paper PMC9732359:
± gives the uncertainty stated by the source.

Assay: protein stability index of a GFP-peptide fusion (yeast GPS) (PSI 1-4); higher = more stable; sorted into four equal gates, so the index is relative within each strain
How it was run: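 The protein stability index of a peptide was calculated by multiplying its read frequency in each gate by that gate's number and adding the products. The peptides were tiled 17-residue stretches of yeast proteins, fused downstream of GFP on a Cherry-expressing plasmid and carried in yeast as a pooled library. Mid-log cultures in leucine-free medium were sorted into four equal gates by GFP/Cherry ratio, and each gate's plasmids were PCR-amplified and Illumina-sequenced.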

Sequence | protein stability index (doa10∆) | protein stability index (pdr5∆) | protein stability index (san1∆) | protein stability index (ubr1∆)
PRLDAQAIKEASYVNIP [RPS0B] | 2.88 ± 0.041 | 2.84 ± 0.039 | 2.79 ± 0.044 | 2.52 ± 0.031
PRLDDVVVDTVECAQHC [SMC4] | 3.22 ± 0.1 | 3.31 ± 0.13 | 3.17 ± 0.092 | 2.75 ± 0.13
PRLDTSKEFSAYVSGLF [YJR042W/NUP85] | 2.33 ± 0.13 | 2.08 ± 0.082 | 2.05 ± 0.13 | 3.12 ± 0.13
PRLLGPQLSKAGKFPTP [RPL1A] | 2.86 ± 0.066 | 2.8 ± 0.057 | 2.74 ± 0.052 | 2.64 ± 0.035
PRMVRDVFRLARENAPS [RPT3] | 2.62 ± 0.17 | 2.88 ± 0.059 | 2.86 ± 0.16 | 2.89 ± 0.097
PRYFSEAINGFKDETIS [SIR3] | 2.77 ± 0.057 | 2.87 ± 0.054 | 2.46 ± 0.11 | 2.84 ± 0.048
PRYHSKNSFQQALQMKA [SWP82] | 1.4 ± 0.033 | 1.82 ± 0.049 | 1.38 ± 0.062 | 1.45 ± 0.043
PSEDVAALKKTRKAARP [RPL6A] | 2.83 ± 0.062 | 3.02 ± 0.048 | 2.95 ± 0.039 | 3.05 ± 0.047
PSELNQLKMVNERELNV [RPC82] | 3.14 ± 0.13 | 2.94 ± 0.15 |  | 
PSESEHPIRVLMASVIL [YDL116W/NUP84] | 1.87 ± 0.076 | 1.89 ± 0.064 | 1.75 ± 0.062 | 1.78 ± 0.08
PSFVKSGKLRDYQVQGL [ISW2] | 3.33 ± 0.076 | 3.39 ± 0.071 | 3.22 ± 0.039 | 3.31 ± 0.058
PSKTPEVYMRYRNFMVN [SWI3] | 1.8 ± 0.075 | 1.81 ± 0.072 | 1.82 ± 0.14 | 1.81 ± 0.062
PSLNNKISDDELERILK [RPB4] | 3.09 ± 0.096 | 2.9 ± 0.098 | 3.06 ± 0.09 | 3.21 ± 0.07
PSNESCSPWSLQISDIP [SRB5] | 2.87 ± 0.058 | 2.78 ± 0.047 | 2.97 ± 0.039 | 2.91 ± 0.032
PSSSDSNGPRAAKKRRP [RRP6] | 3.08 ± 0.11 | 3.29 ± 0.085 | 3.28 ± 0.063 | 3.3 ± 0.062
PSVIHSSVEMLLDVVKG [YDL116W/NUP84] | 2.56 ± 0.085 | 1.85 ± 0.11 | 2.2 ± 0.057 | 1.42 ± 0.038
PSYSPTSPGYSPGSPAY [RPO21] | 2.52 ± 0.067 | 2.27 ± 0.053 | 2.33 ± 0.1 | 2.02 ± 0.043
PSYVHFKVQIIELLSYL [YML103C/NUP188] | 1.41 ± 0.063 | 2.27 ± 0.065 | 1.8 ± 0.072 | 2.04 ± 0.05
PTAKDVEVIKQLSLDAS [GAL11] | 3.08 ± 0.13 | 2 ± 0.07 | 1.82 ± 0.1 | 2.28 ± 0.073
PTDQNNQSNLNGGNNTQ [SNF2] | 2.46 ± 0.083 | 3.03 ± 0.072 | 3.13 ± 0.079 | 3.01 ± 0.063

Sequence | protein stability index (doa10∆) | protein stability index (pdr5∆) | protein stability index (san1∆) | protein stability index (ubr1∆)
PTIEEDLTRVYKAISAQ [FAS2] | 2.22 ± 0.051 | 2.21 ± 0.041 | 2.75 ± 0.056 | 2.32 ± 0.042
PTRIRTKSSKEFFNTLR [RRI2] | 2.73 ± 0.13 | 3.01 ± 0.15 | 3.06 ± 0.081 | 2.91 ± 0.11
PTVNRVPNYEVSEKAFL [RPN7] | 1.14 ± 0.12 | 1.68 ± 0.1 | 1.79 ± 0.22 | 1.18 ± 0.17
PVEKVQRIAKNDPEYMD [DLS1] | 2.75 ± 0.27 | 3.29 ± 0.14 | 3.17 ± 0.12 | 3.31 ± 0.087
PVKQSFIRKYINQKALR [GAL11] | 1.61 ± 0.12 | 1.59 ± 0.07 | 1.61 ± 0.099 | 1.77 ± 0.08
PVMADLNGGLQFVPELK [FAS2] | 1.78 ± 0.069 | 2.19 ± 0.076 | 2.07 ± 0.077 | 2.01 ± 0.056
PVTIWLFEQIGIRIKGK [SME1] | 2.42 ± 0.057 | 2.28 ± 0.053 | 2.35 ± 0.066 | 2.45 ± 0.039
PVTSIPSTNKKLSISNA [GAL11] | 2.29 ± 0.061 | 2.67 ± 0.056 | 2.53 ± 0.058 | 2.8 ± 0.058
PWDTSLEVGRRFSPDED [MCD1] | 3.25 ± 0.14 | 3.44 ± 0.19 | 3.28 ± 0.15 | 3.41 ± 0.17
QAAAKPSLEKSSFTFGS [YLR335W/NUP2] | 3.04 ± 0.1 | 2.97 ± 0.1 | 2.97 ± 0.18 | 2.73 ± 0.075
QAESMKFKLLNGLAIRR [RPS3] | 1.69 ± 0.069 | 2.3 ± 0.085 | 1.48 ± 0.12 | 2.58 ± 0.1
QALDAVRMRLAQLTHSL [MED8] | 1.58 ± 0.04 | 1.58 ± 0.047 | 1.54 ± 0.065 | 1.5 ± 0.035
QARDNSQVFGVARIYAS [RPS14A] | 1.9 ± 0.066 | 2.12 ± 0.057 | 1.84 ± 0.087 | 2.23 ± 0.045
QASGITAGAAANALGGL [SSN3] | 2.56 ± 0.071 | 1.91 ± 0.068 | 2.13 ± 0.093 | 2.02 ± 0.058
QAVNNLIKTLSTLHMLG [RPP1] | 2.5 ± 0.053 | 2.45 ± 0.058 | 2.38 ± 0.071 | 2.47 ± 0.042
QAYFSRLELPVDFQNDL [BRR2] | 2.65 ± 0.15 | 2.1 ± 0.064 | 2.54 ± 0.066 | 2.32 ± 0.044
QCNYSSLVFNRKLAVER [PRE5] | 2.23 ± 0.2 | 1.5 ± 0.18 | 1.46 ± 0.19 | 1.67 ± 0.2
QDDIDEMVENSSENNQI [SRP68] | 3.35 ± 0.1 | 3.25 ± 0.11 | 2.97 ± 0.14 | 3.35 ± 0.088
QDEVNKGPAIDELSSKE [NNF1] | 3.23 ± 0.061 | 3.36 ± 0.081 | 3.34 ± 0.077 | 3.24 ± 0.057
QDKMFVSNPIRKVFKPS [FAS1] | 3.01 ± 0.058 | 2.62 ± 0.054 | 2.03 ± 0.1 | 2.68 ± 0.06
